Source: patent US20250355001A1 (GTINVENT, published 2025)
Where two headings read alike, the source gives them in different places.

T1: biotinylated tau peptide 412-441 (N-terminal biotin)
T1 peptide: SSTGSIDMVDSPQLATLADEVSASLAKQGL

T2: tau fragment 1-49 (human)
T2 construct: also called Tau 1-49
T2 peptide: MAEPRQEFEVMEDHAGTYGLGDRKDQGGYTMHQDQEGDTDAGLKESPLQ

B1: 412E6 (scFv)
scAb: QVQLQESGPSLVKPSETLSLTCTVSGFSLTNYGVGWVRQAPGKALEWLGNIYSGGSTYYNPALKSRLSITRDTSKSQVSLSLNSVTLEDTAVYYCGRGGVGSVDVWGPGLLVTVSSEGKSSGASGESKVDDQAVLTQPPSVSGSPGQRVSITCSGGRNNIGRGTFVDWYQQLPGSGLKTVIYGTDRRPPGVPDRFSGSKTGNAATLTITSLQAEDEADYWCATYDYSNDMIILGSGTRLTVLG
B2: 3bF4 scAb (scFv, not shown: small tags and cut ends)
scFv: QVQLQESGPSLVKPSQTLSLTCTVSGFSLSSNGVGWVRQAPGKVPEWLGDISSVGKKYANPALKSRLSFTRDTSKSQVSLSLSSVTTEDTAVYYCVKCRDGGVTYGYDIDYWGPGLLVTVSSEGKSSGASGESKVDDQAVLTQPSSVSKSTGQTVSITCSGSSSNVGLRNYVTWFQQVPGSAPKLLIYGATSRASGIPDRFSGSRSGNTATLIISSLQAEDEADYYCASADTNDGGVFGSGTRLTVLG
notes: scAb
B3: 412E10 scAb (scFv, not shown: small tags and cut ends)
scFv: QVQLQESGPSLVKPSQTLSLTCTVSGFSVISDSVAWVRQAPGKVPEWLGASGSSGNKYYNPALKSRLSITRDTSKSQVSLSLSSVTTEDTAVYYCARGIIAGVDVWGRGLLVTVSSEGKSSGASGESKVDDQAVLTQPSSVSGSLGQRVSITCSGSSSNVGYGNYVGWYQQVPGSAPKLLIYGTAIRASGVPDRFSGSRSGDTATLTITSLQAEDEADYYCASYQSNYAFFGSGTRLTVLG
notes: scAb
B4: 412B9 (scFv)
scAb: QVQLQESGPSLVKPSQTLSLTCTVSGFSVISDSVAWVRQAPGKVPEWLGASGSSGNKYYNPALKSRLSITRDTSKSQVSLSLSSVTTEDTAVYYCARGIIAGVDVWGRGLLVSVSSEGKSSGASGESKVDDQAVLTQPSSVSGALGQRVSITCSGSSSNVGYGDYVGWYQQVPGSAPKLLIYGAASRASGVPDRFSGSRSGNTATLTISSLQAEDEADYYCASYDSSDGGVFGSGTRLTVLG
B5: 3aB7 scAb (scFv, not shown: small tags and cut ends)
scFv: QVQLQESGPSLVKPSQTLSLTCTVSGFSLTSNGVGWVRQAPGKVPEWVGDKSSAGKTYGNPALKSRLSITRDTSKSQVSLSLSSVTTEDTAVYYCVRCRDGGVTYGYDVDYWGPGLLVTVSSEGKSSGASGESKVDDQAVLTQPSSVSKSLGQSVSITCSGSSSNVGYGDVVSWFQQFPGSAPKLLIFGTTTRASGVPDRFSGSRSGNAATLTINSLQAEDEADYYCASFDSDSGGIAGSGTRLTVLG
notes: scAb
B6: E1E8 scAb (scFv, not shown: small tags and cut ends)
scFv: QVQLQESGPSLVKPSQTLSLTCTVSGFSLTDWGVAWVRQAPGKALEWLGTMRSGGTTDDNPALKSRLSITRDTSKSQVSLSLSSVTTEDMAMYYCARGYLSGVHYAWGRGLLVTVSSEGKSSGASGESKVDDQAVLTQPSSVSGSLGQSVSITCSGSSSNVGDGRYVSWFQQVPGSAPKLLIYDTTSRASGVPDRFSGSRSGNTATLIITSLQAEDEADYYCASIDSGNNLLFGSGTRLTVLG
notes: scAb
B7: CA12 scAb (scFv, not shown: small tags and cut ends)
scFv: QVQLQGSGPSLVKPSQTLSLTCTVSGFSFDSYYVGWVRQAPGKALEWLGNIYSTGRAFYNPALKSRLSITRDTSKSQVSLSVSSVTIEDTALYYCVRGSYYHGGGNGMVDFFDYWSPGLLVTVSSEGKSSGASGESKVDDQVVRTQPSSVSGSLGQRVSITCSGSSSNVGYGNYVGWFQQVPGSAPKLLIYAATSRASGVPDRFSGSRSGNTATLTIDSLQAEDEADYYCSSYQRGNTGVFGSGTRLTVLG
notes: scAb
B8: 3aD3 scAb (scFv, not shown: small tags and cut ends)
scFv: QVQLQESGPSLVKPSQTLSLTCTVSGFSLTSNGVGWVRRAPGKVPEWVGDISSGGKVYGHPALKSRLSITRDTSKSQVSLSVSSVTSEDTAVYYCVRCRDGGVSYGYDSDYWGPGLLVTVSSEGKSSGASGESKVDDQAVVTQPSSVSKSLGQSVSITCSGSSSNVGYGDYVGWFQQVPGSAPKLLIYGVTERASGVPDRFSGSRSGNTATLTISSIQAEDEADYYCASYDDSSGGIFGSGTRLTVLG
notes: scAb
B9: 3aH6 scAb (scFv, not shown: small tags and cut ends)
scFv: QVQLQESGPSLVKPSQTLSLTCTVSGFSLSSNGVGWVRQAPGKVPEWLGDISSVGKKYANPALKSRLSFTRDTSKSQVSLSLSSVTTEDTAVYYCVKCRDGGVTYGYDIDYWGPGLLVTASSEGKSSGASGESKVDDQAVVTQPSSVSGSLGQSVSITCSGSSGNVGYGDYVSWFQQFHGSAPKLLIYGATNLASGVPARFSGSRSGNTATLTISSLHAEDEADYYCASYDSSSGGVFGSGTRLTVLG
notes: scAb
B10: 3bG4 scAb (scFv, not shown: small tags and cut ends)
scFv: QVQLQESGPSLVKPSQTLSLTCTISGFSLISNGVGWVRQAPGKVPEWVGDIASSGKAYSNPALKSRLSITRDTSKSQVSLSLRSVTTEDTAVYYCVRCRDGGVTYGYDIDYWGPGLLVTVSSEGKSSGASGESKVDDQAVLTQPSSVSKSLGQSVSITCSGSTSNVGSGNDVSWFQQVPGSAPKLLFYGATNRASGVPDRFSGSRSGNTATLTITSLQAEDEADYYCGSYDSNSGGIFGSGTRLTVLG
notes: scAb

Experiments:
[1] = target: T3, full length human tau protein 2N4R (hT40) (human, UniProt P10636 1-758); test: hT40 ELISA
T3 construct: recombinant; also called T441
Target sequence in this assay (P10636 other isoform, or with tags, fused parts or gaps limits assumed): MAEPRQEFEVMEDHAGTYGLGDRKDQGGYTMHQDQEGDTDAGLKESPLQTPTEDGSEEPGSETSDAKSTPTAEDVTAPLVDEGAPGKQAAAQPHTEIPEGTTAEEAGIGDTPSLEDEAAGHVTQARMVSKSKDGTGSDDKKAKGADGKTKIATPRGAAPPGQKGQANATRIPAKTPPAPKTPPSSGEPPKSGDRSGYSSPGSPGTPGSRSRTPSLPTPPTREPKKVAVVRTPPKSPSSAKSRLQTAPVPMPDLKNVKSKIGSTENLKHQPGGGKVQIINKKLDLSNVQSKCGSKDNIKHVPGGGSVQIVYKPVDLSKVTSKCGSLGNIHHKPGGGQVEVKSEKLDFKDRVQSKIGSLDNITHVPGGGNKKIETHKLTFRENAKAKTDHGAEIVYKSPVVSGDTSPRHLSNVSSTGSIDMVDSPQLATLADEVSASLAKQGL

[2] = target: T3, full length human tau protein 2N4R …; test: hT40 ELISA; remark: listed apart in the source
Protocol: (§1) A series of binding ELISA was performed using various truncated versions of the tau protein and 13mer peptide libraries spanning the entire hT40 molecule for mapping the epitopes of anti-tau scAbs (Full list of protein antigens used is given in Table 14). In general, ELISA plates were coated with 1 μg/ml hT40 or dGA or dGAE or other truncated versions of the protein and in the case of biotinylated peptides, plates were coated with 5 μg/ml Streptavidin followed by 1 μg/ml biotinylated peptide. The plates were blocked with 2% MPBS and scAb samples added at desired starting concentrations and double diluted across the plate. Binding was detected using anti-Human C Kappa HRP conjugated secondary antibody and the resulting immunoreaction was developed and absorbance values measured as described above.

[3] = target: T1, biotinylated tau peptide 412-441; test: ELISA on biotinylated 412-441 peptide
Protocol: as §1

[4] = target: T3, full length human tau protein 2N4R …; test: SPR, scAb captured, tau analyte
Protocol: (§2) The capture antibody was diluted 1/100 in 10 mM Sodium acetate buffer pH 5.0 and passed over the activated chip surface for a period of at least 420 s. Final ligand immobilisation levels over 12,000 RU were deemed to be satisfactory.
(§3) The scAb to be tested was added only to flow cell 2 so that flow cell 1 could act as a control to subtract any interaction with the analyte and the chip surface. […] The multi-cycle protocol was as follows-Three start-up cycles composed of an initial capture, to the desired level, of the scAb to be tested was performed followed by a 30 s injection of glycine buffer pH 2.0 after each cycle to regenerate the chip surface. […] The target was added for a 120 s association period and 420 s dissociation period followed by another regeneration, 30 s injection of glycine buffer pH 2.0 in between each cycle.
(§4) The single cycle kinetics protocol was similar and utilised the same level of scAb capture. […] In single cycle kinetics the regeneration step was performed only after the final analyte concentration was added. Binding responses were analysed in Biacore X100 evaluation software and data fitted to a 1:1 binding model to obtain kinetic and affinity characterisation.
Target sequence in this assay (P10636 other isoform, or with tags, fused parts or gaps limits assumed): as above

tau fragment 1-155 = tau fragment 1-155 (human, UniProt P10636 1-472); test: direct ELISA
Protocol: as §1

[5] = target: T3, full length human tau protein 2N4R …; test: Biacore
Protocol: as §2, §3, §4
Target sequence in this assay (P10636 other isoform, or with tags, fused parts or gaps limits assumed): as above

[6] = target: T3, full length human tau protein 2N4R …; test: SPR, summary table
Protocol: as §2, §3, §4
Target sequence in this assay (P10636 other isoform, or with tags, fused parts or gaps limits assumed): as above

[7] = target: T3, full length human tau protein 2N4R …; test: sandwich ELISA, S1D12 mAb capture, scAb detection
Protocol: Full length tau (hT40), at 1 μg/ml starting concentration was added to designated wells and double diluted across rest of the plates and left to incubate at R/T for 1 h. A series of detection scAbs with varying epitope recognition properties were added at 10 μg/ml to designated wells (FIG. 22). For colourimetric detection HRP conjugated anti-HuCk secondary antibody was used and the resulting immunoreaction was developed and absorbance at 450 nm measured as described previously. Cut-off point for a positive binding event was an absorbance value of 0.3 following background subtraction. In order to enhance the assay sensitivity, a chemiluminescent detection method was adopted where 50 μL SuperSignal ELISA Femto Substrate (Thermo Scientific) was added to each well following incubation with anti-HuCK HRP antibody and subsequent washing. The luminescence was read using Clariostar Plus microplate reader. A further modification to this protocol was done where various detection scAbs were directly conjugated with HRP and detected using chemiluminescent protocol as before.
Target sequence in this assay (P10636 other isoform, or with tags, fused parts or gaps limits assumed): as above

dGAE (tau 297-391) = target: T4, dGAE (tau 297-391) (human, UniProt P10636 614-708); test: SPR, scAb captured, tau analyte
T4 construct: monomer; also called dGAE95
Protocol: as §2, §3, §4

dGA (tau 297-390) = dGA (tau 297-390) (human, UniProt P10636 614-707); test: direct ELISA
Protocol: as §1

[8] = target: T3, full length human tau protein 2N4R …; test: direct ELISA
Protocol: as §1

aggregated dGAE [9] = target: T5, aggregated dGAE (human, UniProt P10636 614-708, limits assumed); test: sandwich ELISA, S1D12 mAb capture, SDS + Triton treated dGAE aggregates
T5 construct: dGAE aggregated in vitro with DTT, 700 rpm, 37 C, 24 h; also called dGAE aggregates; dGAE agg
Protocol: For aggregation, 1000 μL 100 μM dGAE+10 μL 10 mM DTT was added to a ‘LoBind’ microfuge tubes and agitated at 700 RPM/37° C. for 24 hours. Resulting sample centrifuged at 17,000×g/4° C. for 60 min and supernatant discarded to remove left over monomer. Pellet resuspended in half the original volume for future experiments and hereafter referred to as ‘aggregates’. 1 μl of aggregates was added to 1 ml of PBS and SDS was added to a final concentration of 1% (w/v). This was left to incubate on lab bench for 1 h with gentle agitation every 15 minutes. In order to neutralize the SDS effect on ELISA, Triton X-100 added to a final concentration of 3% (v/v) and mixed gently by pipetting to prevent any bubble formation. […] Similarly aggregates treated with only SDS or Triton X-100, untreated aggregates, dGAE monomers treated with only SDS or SDS+Titon X-100 were also added to designated wells as controls. All samples were then double diluted across the plate in final volumes of 100 μl. The final column was left with no protein to act as a blank.

[10] = target: T3, full length human tau protein 2N4R …; test: hT40 ELISA; remark: listed apart in the source
Target sequence in this assay (P10636 other isoform, or with tags, fused parts or gaps limits assumed): as above

aggregated dGAE [11] = target: T5, aggregated dGAE; test: ELISA, direct immobilisation, SDS + Triton treated dGAE aggregates
tau fragment 1-49 = target: T2, tau fragment 1-49; test: direct ELISA
Protocol: as §1

T4 sequence (P10636 614-708 limits assumed): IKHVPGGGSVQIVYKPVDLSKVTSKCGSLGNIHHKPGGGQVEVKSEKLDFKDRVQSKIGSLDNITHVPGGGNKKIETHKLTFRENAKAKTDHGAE
T5 sequence (P10636 614-708 limits assumed): as above
dGA (tau 297-390), sequence (P10636 614-707 limits assumed): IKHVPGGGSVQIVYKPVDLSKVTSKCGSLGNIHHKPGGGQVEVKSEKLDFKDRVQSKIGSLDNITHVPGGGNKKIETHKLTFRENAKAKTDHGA

Row | Binder | EC50 (read off the curve) [3] | Kd [4] | koff [4] | kon [4] | binding result (tau fragment 1-49) | further results
1 | B1 | ~2 µg/mL | – | – | – | – | EC50 (read off the curve) [1]: ~6 µg/mL; EC50 (read off the curve) [2]: ~6 µg/mL
2 | B2 | – | 140 nM | 0.0153 s⁻¹ | 109000 M⁻¹ s⁻¹ | – | EC50 (read off the curve) (tau fragment 1-155): ~1 µg/mL
3 | B3 | ~0.4 µg/mL | 3.16 nM | 0.00085 s⁻¹ | 271000 M⁻¹ s⁻¹ | – | Kd [5]: 3.3 nM; Kd [6]: 3.16 nM; EC50 (read off the curve) [1]: ~1 µg/mL; EC50 (read off the curve) [2]: ~1 µg/mL; LoD chemiluminescence detection [7]: 0.37 ng/mL; LoD colourimetric detection [7]: 20 ng/mL
4 | B4 | ~2 µg/mL | – | – | – | – | –
5 | B5 | – | 69 nM | 0.0143 s⁻¹ | 207000 M⁻¹ s⁻¹ | – | EC50 (read off the curve) (tau fragment 1-155): ~0.8 µg/mL
6 | B6 | – | – | – | – | – | Kd (dGAE (tau 297-391)): 6.3 nM; koff (dGAE (tau 297-391)): 0.0014 s⁻¹; kon (dGAE (tau 297-391)): 154000 M⁻¹ s⁻¹; binding result (dGA (tau 297-390)): no binding (tested: 25 ug/ml); binding result [8]: no binding (tested: 25 ug/ml)
7 | B7 | – | – | – | – | – | LoD (aggregated dGAE [9]): 2 ng/mL; EC50 (read off the curve) [10]: ~0.02 µg/mL; LoD (aggregated dGAE [11]): 16 ng/mL
8 | B8 | – | 19.1 nM | 0.0104 s⁻¹ | 544000 M⁻¹ s⁻¹ | binds | –
9 | B9 | – | 3.6 nM | 0.00987 s⁻¹ | 2.76e+06 M⁻¹ s⁻¹ | binds | –
10 | B10 | – | 8.9 nM | 0.0597 s⁻¹ | 6.67e+06 M⁻¹ s⁻¹ | binds | –
